This data set can be described thus: protease stability score; higher = more stable; yeast display proteolysis, trypsin and chymotrypsin.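 Note: log10 excess protease needed over predicted unfolded state with 0 meaning unfolded.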
“DKEELSWAKKVLEKNNWESLAENADENAKVDVGDKRYSGREQVEHLMNQLRRRVDHVEYKHIDSKGDKLVADFQVVVNGREVKVRLQMNVHNGRVRHLTMEARNEDDKRFLKEMLD” displayed a protease stability score of 1.3.
For the sequence “DKEENHMFQQAFTVEWTGDPEKVNRLMDPNAKIEVGEKRVHGMDKYAREVKREHDDMRVDVRTYSNDVHNGEVDVKVNYVKNNNGRPRHVSQSIRAHASNGKVKSVQVTERG”, the protease stability score was -0.299.
In the case of “DKEEVEKIAREALEAAVKGDEDKLKTYLGPDVKYVLGDQEYQGQQVAELVMKLIKKDGARLQLETLKVEGNTVQAQYQFHVDGVTRKAHITMKVKGGRVDEWQVHIDDHAKEALKKG” it was 1.28; in that of “DKEEVHKLKHLLRHGDFEKINKKADKDARMQIGDRVYHGREKMKKALEILQREVDDIRVDSIKVSGDRVSAEMHMEVNGRRYVFVVVIRATNGRVVSLKVKARSESQDEHLKNLVE”, 0.625; in that of “DKEEVQRIVEEMLKFVESGDIKKLVDHGKEGVRYRLGDEEAHGPEAIKKMVVKMKKVGLRIEVKEYQVEGDTATTKLKYQLGDTEDTVEVNAQAQGGRIDQVNADVDKTAVDMIKQG”, 0.048.
In the case of “DKEHLKRMVETIIKILETGDPDKMKNLADENVRVEVGDKDVHGKDTLRKHIEEWRRQIDHLEVKSVRVKGNKASIHFVVRVNGTDKTVVVVFDIHNGKIKMVHYTDS” it was 0.637; in that of “DKEIKDLARQVLTAEKTGDPEQFKKLFDPNVHVEVGDKTVTGREEASREFKKSQQELRIDMKSVSVTVEGNSVDIEIHAHLKVNGRPIDMHFRIILTFHNGKVHHVQLQVSEDQLRKMSQ”, 0.668; in that of “DKEILDLVNEFLKAQRDNDPDRVSELADPNVKVHYGDKQIRGREEVNKQVEKEQKEIQVDFRIKHVTVENGRADLNFRYHANVNGQPISFDARIEMQFHNGRLKRLVLRMPEEAVKTMDS”, 0.118.
In the case of “DKEKEADQQVRTADEIYQTGNPEEAKKLADPNVDVRIGDKEYHGDRELAQIIVEKRERVDSLVFHVERINVHPGRFQLNVVLTLKHNGKHETKKEEFVMTKRNGQLRVVHMRDQ” it was 0.056; in that of “DKEKEAKKAIDKMITAIQHNDEDRAREMADPNVRIKYGDKQYHGRETMEDWIRTLRNSYDHLDIKLTDMKTDGDKIHIIIQYEADHNGQRTRDRVDLTMRRDNGRVKLVSAKEQ”, 0.232; in that of “DKELQDTAHKLAKNGDFSRLAELADEDVQIKIGDERVTGREEQKKLVEVQQRRIDHVEVDRVHAQGNKVSVNMTIVVDGESRTVNIDITMHNGRVKEIVYNATSEEARKEMTKWYR”, -0.362.
“DKELRHSWEDQLRAEEEGDENRLRELIDPNASFVVGDKSIHGREQFADDMRRKLTEMRVEIKSYSVHAHNGHLDIKVHRRVNHDGEPKEDTYRADVQADNGRIVRVTIQSDG” displayed a protease stability score of -0.652.
On to “DKELRKHLTEFVKNYQHGNERELNKYADPNVKFRYGDKTLNGREEWMKHIQRLKKEIRFEIDDFRIRARNGELDMTFDFKQEVNGRPKSDRAQMNVVMHNGKIVEIDFRVDPTFEKEVKG”, for which the protease stability score came to 0.376.
In the case of “DKELWEWFRRWLENYRTGNHNNIREMADPNVRMVVGDKHISGREHYAEEVSRQVHKLRVSLDFKDYDLRPNRVNVDAVIRMTSDGEPDQSKWSQTLQFSNGRLHQANVTMNQ” it was 0.192; in that of “DKEMASVVERWLDALQRNDPDQANNNADKDATFDVGDKKVKGRDTLKKLVEDLRREMRFNITSMSITVHGDKVVVTYRVSMQHDGQPMQHRYFLHAQDKNGHIHNLHVQKSD”, 0.44; in that of “DKENLETLHELMTALERGDEQKVADEIDPNAKLQYGDKEIHGRKQAHRFIKTVKDQQRFHIQVKDLKVKGDTMDLRAEVEFQHNGHPDSDVIVVNARAHNGHISTLTVTKDD”, -0.223.
In the case of “DKEVEEVWKKMLTAQKYGDEKRYKDLADPNVKYNIGDKKIDGRDTYAEEMKKRRDEIRLRMQITDVKQQGDKLHVRFKIEAEINGKPISEDVTAVLVNHNGKVKHYSMHVPHEFFKKQQK” it was 0.213.
In the case of “DKEVIKQLKHFMKALEKGDPDKLVELADPEAKYEYGDRTYKGMSNVAEELVNTRREIRFQLTLQSYEVQGEKARVKAVYVKDRNGKPDNQVVVIEMEAHNGKIKSMQERSDQ” it was 0.501; in that of “DKEVNNMAEKFLDAFRTNDPDQVRRLADENASFRVGDKVLTGMTEAVRELHRQVKQMEVRITDVKNSVQGDQANLDIHFDVHDNGKPDTRRMVLVVNVENGRIREVEVNQDD”, 0.4; in that of “DKHAAQVVLEIMHAVDTGNENEVMKLIDPNARVEYGDKSITGREDIARHLIHDAKHINRRWSLKDIDVQGEKVFIKFEYKTNKNGRPDKADVNLEAKAHNGTVTTMRLQETR”, 0.368.
For “DKHLEDLARTLVHALRTGDPQMINHLFDENARVEVGNRRVHGREDANQRMKEINSQARMHVRLTSLRVDENRADLTVDASARVNGQPNTLRYQFWFHQHNGRITSMSARMSEHDVKQFES”, the protease stability score was -0.278.
For “DKHQMHILKSIVENEQKGDEKSVSKMVDPNARFHVGDKRISGREQKDEDVQRKKDEIRVQIDKVEFNHSNGRVVVNMDMTIDRNGKPKTFKAQAHATFHNGTATSQTQTNDG”, the protease stability score is -0.614.
As to “DKHRVEHAKRILEIWTNGDEKSVKDLFDPNVRVDVGDKRITGREQLAREWKRRRDEMEWSLTVHEYKDDPNRVDINVHFNRNKNGRPRTQQQHLRIDMDNGSVRQLRIEDSK”, the protease stability score amounted to 0.216.
“DKKANSMAHDLIRNRNSNNPERLKEMMDPNVEIVIGDKTVNGTHEYERQQRQRDRQIQIDVKSVTFKDRPNHAQVRFDAVFHHNGQPDRRVQEVIIRQRNGKVKHIHVQDTE” gave a protease stability score of -0.365.
The sequence “DKKDVDRVIKLLEQGDWESLVEMMDENARLQVGNKNYHGRTQVRHAATRLQDRIDHVKIDQVDVHNGRVDARFKANINGKTMDVQVRINVDNGHIKYVRVTVRSEELRHELDRLLS” showed a protease stability score of 0.961.
Next, “DKKEHQEAAETFDRALKRGDPDTAMSLFDKDARANVGDKTYQGSEKLSEAMHRLSEEADRFHVRDVHFTNGEVSVNMYLNVNGKRVQVDVHIELSNGRAKEVTFNPDQLNEMQN”: -0.119.
Next, “DKKLNKQMEEWVQAVNTGDSEQLEDLVDPNVRLEVGDKQFHGREEVRRQQTKKIEEIRLHLDLKDVKAENGHAQLDVNVEFEHNGQPNSNRRTLNAVVHNGKIKHLSDKTDP”: -0.347; “DKKLSRQFREFWRAMEDGDPDKLRENADPNVKYVVGDKTIHGRETYVKEAQDRRREMRVELDTMSINDKGERITVEYVQVNEHNGRPKQAVYRQVILFKNGRIKEVRQTKTD”: -0.073; “DKKQVHDVARTLVQYYVSGNSERVKQLGKEDVELHAGDRTYHGVDQMAKVVEQFKKYGVELEVKDVKVDGNRVTARVQFHKAGTTWEFKVDVQADGGKVDQVRVNVTEEAIKHIQHG”: 0.797.
Next, “DKNNLKRYDKLLKILQTGDEHKAKKLADPNVKVKVGDKEIKGWDRFVHESAKRWREARIELKIKHVDVSGDKVTIDYEAEVEVNGKPIRYTATFRFVVHNGRIKTINFSMDENQRETVKR”: 0.007; “DKQDLDKLRELWEDELNGDHRSLREQVDPNAKVEIGDKEIHGRDDFAKDAKRRKEEIRVEMRVKSLSASGDTIDAKVHLDFKVNGKPIRLTVHMHVKVENGKFVDLNVRIDERQVRKIRK”: 0.089; “DKREQSEIAKEVLRMLLTGDPDQNHKLADKDVQFSVGDRTITGREDLDRWLREMHHHIDTQEVKSLDVNGEDVVIDVVATFNGVHMRFVIRVEVHNGRIVNMRMEVTSEETLKRVDG”: -0.092.
Turning to “DKSANHQIEQLMRNINEGDKDKVREQMDPNVEVHVGDKEVHGREQYAREVRKEQEEMRVQFKVEHVKDRNGQAELRIQVQLDHNGKPETRVQHFVAVLDNGRVKSATAKIDK”, the protease stability score was -0.084.
In the case of “DKSAQDLFRKLLEALDTGDEKTAEENMDPNAHARVGDKEVHGMDEYAKHRATENRRMKIRWNSVNLRVHNGQLNVDVDVEVTENGRPSRSRARVVMRMKNGRIKRLEVNEHK” it was -0.118.

These data come from the NTF2 design screens of Basanta et al. (2020).
